Data reported in PMC8564633, “SMAC/Diablo controls proliferation of cancer cells by regulating phosphatidylethanolamine synthesis” (Molecular Oncology, 2021).

Target: T1, purified PSD (Homo sapiens, UniProt Q9UG56)
T1 construct: Purified recombinant protein (full length) of human phosphatidylserine decarboxylase (PSD); His tag (N); purchased Acris-OriGene; host or cells: E. coli
T1 sequence (Q9UG56 53-409): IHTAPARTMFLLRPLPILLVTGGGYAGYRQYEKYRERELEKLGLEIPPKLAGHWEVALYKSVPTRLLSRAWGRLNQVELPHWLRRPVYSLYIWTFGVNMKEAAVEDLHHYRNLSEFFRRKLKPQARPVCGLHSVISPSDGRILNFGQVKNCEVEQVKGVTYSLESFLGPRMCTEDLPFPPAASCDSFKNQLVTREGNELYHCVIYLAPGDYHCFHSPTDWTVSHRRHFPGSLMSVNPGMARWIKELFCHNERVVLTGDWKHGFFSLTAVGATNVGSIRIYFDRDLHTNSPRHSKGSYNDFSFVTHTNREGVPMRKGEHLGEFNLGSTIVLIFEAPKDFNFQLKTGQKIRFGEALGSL
Assay: PSD activity, DSB‐3 method
Format: biochemical
Settings: PS 50 μM, 45 min, 30 °C, n = 4, read-out: IC50, SMAC‐inhibiting PSD activity
Experimental: PE content in the lipid samples was measured as described previously. Briefly, solvent was evaporated from the lipid samples under nitrogen gas, and samples were resuspended in 0.8 mM Triton X‐100. Sample aliquots were added to 96‐well plates containing (50 µL) reaction mixture (80 mM NaCl, 2 mM K2HPO4, pH 7.4) and of borate buffer (12.5 µL) (100 mM boric acid, 75 mM NaCl, 25 mM sodium tetraborate, pH 9). After mixing, 12.5 µL of 100 µM DSB‐3, in 10 mM K2HPO4 (pH 7.4), was then added and incubated for 2 h in the dark with shaking (100 r.p.m.). Fluorescence was measured using excitation λex = 403 nm and emission λem = 508 nm. A calibration curve was obtained using PE (Biovision) as a standard.
To determine PSD activity, purified enzyme (0.2–0.4 μM) or crude cell lysate (0.25–0.5 μg of protein) was incubated with PS (50 μM) for 45 min at 30 °C in the dark with shaking under the conditions described above for PE determination. PSD activity was measured by determining the PE produced as described above, except that the signal obtained in the absence of substrate PS (representing endogenous PE) was subtracted from the signal obtained in the presence of PS.
Human recombinant SMAC (10339‐H08E) was produced by Sino Biologicals (Wayne, PA, USA). […]

B1: SMAC: Human recombinant SMAC (10339‐H08E) produced by Sino Biologicals (protein)
chain: LCVPVVANFKKRCFSELIRPWHKTVTIGFGVTLCAVPIAQKSEPHSLSSEALMRRAVSLVTDSTSTFLSQTTYALIEAITEYTKAVYTLTSLYRQYTSLLGKMNSEEEDEVWQVIIGARAEMTSKHQEYLKLETTWMTAVGLSEMAAEAAYQTGADQASITARNHIQLVKLQVEEVHQLSRKAETKLAEAQIEELRQKTQEEGEERAESEQEAYLRED
modifications: fluorescently labelled with the NanoTemper Protein labelling kit BLUE (in the MST with PSD only)
notes: Human recombinant SMAC (10339‐H08E) produced by Sino Biologicals
B1 was tested, and the IC50 was 0.4 µM.
